Publication PMC6053527 (Frontiers in Plant Science, 2018)

Tests used:
[1] = target: T1, SyMDH (Synechocystis sp. PCC 6803, UniProt Q55383); assay: spectrophotometric assay at […] nm with effector; format: biochemical; conditions: read-out: % activity at 1 mM
T1 construct: gene mdh; full ORF in pGEX5X-1, N-terminal GST tag kept, E. coli expression, glutathione-Sepharose purification
T1 sequence (Q55383 1-324): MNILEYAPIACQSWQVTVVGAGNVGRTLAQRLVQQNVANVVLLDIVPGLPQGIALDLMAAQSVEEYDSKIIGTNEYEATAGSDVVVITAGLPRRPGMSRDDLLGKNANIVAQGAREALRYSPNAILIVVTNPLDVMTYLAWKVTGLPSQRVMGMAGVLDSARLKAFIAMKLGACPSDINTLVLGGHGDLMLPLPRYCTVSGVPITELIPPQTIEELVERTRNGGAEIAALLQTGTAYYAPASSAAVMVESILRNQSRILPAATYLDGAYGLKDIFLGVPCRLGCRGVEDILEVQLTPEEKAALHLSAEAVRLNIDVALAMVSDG

[2] = target: T1, SyMDH; assay: spectrophotometric assay at […] nm; fit to modified Michaelis-Menten equation; format: biochemical; conditions: substrate inhibition by NAD+; oxidative reaction, 4.0 mM malate, 100 mM potassium phosphate pH 8.0
[3] = substrate: O=C(O)C[C@H](O)C(=O)O; assay: purified protein; conditions: oxidative reaction, 8.0 mM NAD+, 100 mM potassium phosphate pH 8.0
[4] = substrate: NC(=O)C1=CN([C@@H]2O[C@H](COP(=O)(O)OP(=O)(O)OC[C@H]3O[C@@H](n4cnc5c(N)ncnc54)[C@H](O)[C@@H]3O)[C@@H](O)[C@H]2O)C=CC1; assay: purified protein; format: biochemical, Synechocystis sp. PCC 6803; conditions: reductive reaction, 0.1 mM oxaloacetate, 100 mM potassium phosphate pH 6.5; pH 6.5
[5] = substrate: NC(=O)c1ccc[n+]([C@@H]2O[C@H](COP(=O)(O)OP(=O)(O)OC[C@H]3O[C@@H](n4cnc5c(N)ncnc54)[C@H](O)[C@@H]3O)[C@@H](O)[C@H]2O)c1; assay: purified protein; format: biochemical, Synechocystis sp. PCC 6803; conditions: oxidative reaction, 4.0 mM malate, 100 mM potassium phosphate pH 8.0; pH 8.0
[6] = substrate: O=C(O)CC(=O)C(=O)O; assay: purified protein; format: biochemical, Synechocystis sp. PCC 6803; conditions: reductive reaction, 0.1 mM NADH, 100 mM potassium phosphate pH 6.5; no added effector; pH 6.5

O=C(O)/C=C/C(=O)O [fumarate]
activity at 1000 µM [1]: ~170%

NC(=O)c1ccc[n+]([C@@H]2O[C@H](COP(=O)(O)OP(=O)(O)OC[C@H]3O[C@@H](n4cnc5c(N)ncnc54)[C@H](O)[C@@H]3O)[C@@H](O)[C@H]2O)c1 [NAD^+]
Ki [2]: 14.5 mM

B1: SyMDH (Synechocystis sp. PCC 6803 substr. Kazusa) (protein)
chain: MNILEYAPIACQSWQVTVVGAGNVGRTLAQRLVQQNVANVVLLDIVPGLPQGIALDLMAAQSVEEYDSKIIGTNEYEATAGSDVVVITAGLPRRPGMSRDDLLGKNANIVAQGAREALRYSPNAILIVVTNPLDVMTYLAWKVTGLPSQRVMGMAGVLDSARLKAFIAMKLGACPSDINTLVLGGHGDLMLPLPRYCTVSGVPITELIPPQTIEELVERTRNGGAEIAALLQTGTAYYAPASSAAVMVESILRNQSRILPAATYLDGAYGLKDIFLGVPCRLGCRGVEDILEVQLTPEEKAALHLSAEAVRLNIDVALAMVSDG
notes: full ORF in pGEX5X-1, N-terminal GST tag kept, E. coli expression, glutathione-Sepharose purification
Km [3]: 2600 µM | kcat [3]: 0.43 s⁻¹ | Km [4]: 30 µM | kcat [4]: 0.97 s⁻¹ | Km [5]: 580 µM | kcat [5]: 0.21 s⁻¹ | Km [6]: 12 µM | kcat [6]: 0.71 s⁻¹
